This note sets out measurements from paper PMC3796514.

Experiment [1] addresses HapRV2G (wild type functional HapR, glycine at position 39), N-terminal 6X His fusion (Vibrio cholerae). Description: SEC.
Experiment [2] concerns the target HapRV2G-E117K (HapR natural variant with lysine at position 117 in the dimerization domain), N-terminal 6X His fusion (Vibrio cholerae). Description: SEC. A general note: Size exclusion chromatography separates by hydrodynamic size, large species first.

What is called stoichiometry N is the number of molecules, sites or subunits per partner or assembly. In experiment [1], “HapRV2G (wild type functional HapR, glycine at position 39), N-terminal 6X His fusion (natural protein)” registered a stoichiometry N of 2. Substance “HapRV2G-E117K (HapR natural variant with lysine at position 117 in the dimerization domain), N-terminal 6X His fusion (natural protein)” came in with a stoichiometry N in experiment [2] of 2.
